Laboratory results reported in IntAct's records for PubMed 16499958.

What was measured:
rabx5_human RABGEF1 [1] = target: rabx5_human RABGEF1 (UniProt Q9UJ41)
rabx5_human RABGEF1 [2] = target: rabx5_human RABGEF1 (UniProt Q9UJ41); remark: listed apart in the source

Substance	effect of a mutation on the interaction (rabx5_human RABGEF1 [1])	effect of a mutation on the interaction (rabx5_human RABGEF1 [2])
Polyubiquitin-B (Homo sapiens) (from UniProt P0CG47) D58A	decreasing interaction	
Polyubiquitin-B (Homo sapiens) (from UniProt P0CG47) I44A		decreasing interaction
